According to patent publication US20050142568A1 (published 2005):

Experiments:
Experiment in all cases: GST pull-down, 35S-Met protein vs GST fusion; - means no detectable binding (footnote a)
[1] = target: T1, GST-CRN-3 (C. elegans, UniProt G5EBX6 1-876)
T1 construct: also called CRN-3 GST-fusion protein; not shown: glutathione S-transferase tag encoded by vector pGEX4T-2
T1 sequence: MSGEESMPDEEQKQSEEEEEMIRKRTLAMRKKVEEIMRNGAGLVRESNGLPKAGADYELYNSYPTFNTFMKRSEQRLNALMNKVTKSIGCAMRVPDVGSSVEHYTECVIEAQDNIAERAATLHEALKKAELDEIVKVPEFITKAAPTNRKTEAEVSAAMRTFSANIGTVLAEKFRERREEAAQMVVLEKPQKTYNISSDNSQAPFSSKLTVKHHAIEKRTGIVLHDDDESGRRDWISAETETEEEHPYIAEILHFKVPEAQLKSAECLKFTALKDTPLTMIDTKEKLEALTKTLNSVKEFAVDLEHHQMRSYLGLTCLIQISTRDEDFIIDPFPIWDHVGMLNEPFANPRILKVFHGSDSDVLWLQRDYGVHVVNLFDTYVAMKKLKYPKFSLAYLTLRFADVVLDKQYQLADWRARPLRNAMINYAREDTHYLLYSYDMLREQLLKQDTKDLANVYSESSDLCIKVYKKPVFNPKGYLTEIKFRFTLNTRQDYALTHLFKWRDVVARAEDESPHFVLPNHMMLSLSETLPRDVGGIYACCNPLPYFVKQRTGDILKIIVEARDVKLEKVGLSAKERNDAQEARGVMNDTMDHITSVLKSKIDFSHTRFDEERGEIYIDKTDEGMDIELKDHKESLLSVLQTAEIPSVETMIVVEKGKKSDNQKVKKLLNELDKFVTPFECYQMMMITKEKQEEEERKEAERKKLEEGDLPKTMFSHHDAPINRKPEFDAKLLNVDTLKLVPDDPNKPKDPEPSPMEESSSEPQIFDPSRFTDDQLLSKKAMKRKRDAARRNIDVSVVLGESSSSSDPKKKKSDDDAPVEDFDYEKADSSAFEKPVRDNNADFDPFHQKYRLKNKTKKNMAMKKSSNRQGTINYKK
Summary of the method: (§1)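 GST alone or GST fusions (5 μg) on glutathione beads incubated 2 hours at 4° C. with in vitro translated ³⁵S-Met-labeled proteins; bound protein by 12% SDS-PAGE and autoradiography. Scored against background binding of ³⁵S-luciferase to GST fusions and of labeled proteins to GST.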

[2] = target: T2, GST-CPS-6 (C. elegans, UniProt Q95NM6 1-308)
T2 construct: GST at the N-terminus as in pGEX vectors; also called CPS-6 GST-fusion protein; not shown: glutathione S-transferase tag encoded by vector pGEX4T-2
T2 sequence (looked up): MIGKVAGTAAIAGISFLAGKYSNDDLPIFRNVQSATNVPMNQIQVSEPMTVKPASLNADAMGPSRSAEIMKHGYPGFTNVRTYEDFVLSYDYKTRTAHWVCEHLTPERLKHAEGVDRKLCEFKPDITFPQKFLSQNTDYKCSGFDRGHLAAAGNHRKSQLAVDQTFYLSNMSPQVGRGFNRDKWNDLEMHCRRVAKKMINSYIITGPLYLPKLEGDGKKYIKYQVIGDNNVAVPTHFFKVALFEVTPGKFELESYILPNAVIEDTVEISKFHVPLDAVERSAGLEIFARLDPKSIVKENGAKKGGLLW
Summary of the method: as §1

[3] = target: T3, GST-CRN-5 (C. elegans, UniProt G5EG59 1-214)
T3 construct: also called CRN-5 GST-fusion protein; not shown: GST carrier and the linker of vector pGEX4T-2
T3 sequence: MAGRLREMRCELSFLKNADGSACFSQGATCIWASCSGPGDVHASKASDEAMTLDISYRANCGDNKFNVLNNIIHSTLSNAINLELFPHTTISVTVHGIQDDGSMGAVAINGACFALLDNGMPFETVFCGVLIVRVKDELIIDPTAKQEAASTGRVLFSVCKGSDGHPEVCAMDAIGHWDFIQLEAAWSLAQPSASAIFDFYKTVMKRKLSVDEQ
Summary of the method: as §1

Measured: binding result

B1: ^35S-Methionine labeled CRN-2 (enzyme, C. elegans)
chain: MALYELVDIGANLGHPSYQKDLNDVLDRAKQAGLSKIMVTGTSEKISHECADLVEKYPGFLYFTAGVHPHDAKDWNDGTLEALKKLQENPSCVAVGECGLDFNRNFSPQDVQKEVFAKQVDMAVKLQKPLFIHEREAHEDMVKILTAAGPSLPPAVIHCFTGTVVEAKKYLEMGFYIGLTGFLWKDRSDNGVQAGLRSGEIPIEKLVLETDAPYMYPKINDKKIPKEIKSLITPETEALHNFSSFNRNEPCSLAAVCELVAAFAGRDPKEVAKITTENAKKVYKLE
no binding: [1] | [2] | [3]
